Assay results from patent US20230250154A1 (CYTONICS, published 2023).
Like-named read-outs stand apart in the source and are kept apart here. Values belong to the binder of their own block, whether it stands above or below them.

Legend:
Experiment in all cases: cell-based or functional assay
[1] = target: Elastase
[2] = target: T1, MMP2 (human, UniProt P08253 110-660, limits assumed)
T1 sequence (looked up): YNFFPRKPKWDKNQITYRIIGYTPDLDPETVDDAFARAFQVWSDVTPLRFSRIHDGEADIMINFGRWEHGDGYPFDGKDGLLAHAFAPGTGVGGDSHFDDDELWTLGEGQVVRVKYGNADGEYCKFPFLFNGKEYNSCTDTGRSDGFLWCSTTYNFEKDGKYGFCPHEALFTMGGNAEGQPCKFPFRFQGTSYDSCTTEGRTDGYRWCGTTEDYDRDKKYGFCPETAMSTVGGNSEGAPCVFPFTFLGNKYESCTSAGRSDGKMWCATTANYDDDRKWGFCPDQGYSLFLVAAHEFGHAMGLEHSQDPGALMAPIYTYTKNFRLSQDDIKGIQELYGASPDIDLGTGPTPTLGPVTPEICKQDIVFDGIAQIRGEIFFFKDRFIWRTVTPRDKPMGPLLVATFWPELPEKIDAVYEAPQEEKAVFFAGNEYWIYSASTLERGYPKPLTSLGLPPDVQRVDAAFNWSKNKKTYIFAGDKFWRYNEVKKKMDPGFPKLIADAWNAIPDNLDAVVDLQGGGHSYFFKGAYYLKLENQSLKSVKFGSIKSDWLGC

[3] = target: T2, MMP1 (human, UniProt P03956 100-469, limits assumed)
T2 sequence (looked up): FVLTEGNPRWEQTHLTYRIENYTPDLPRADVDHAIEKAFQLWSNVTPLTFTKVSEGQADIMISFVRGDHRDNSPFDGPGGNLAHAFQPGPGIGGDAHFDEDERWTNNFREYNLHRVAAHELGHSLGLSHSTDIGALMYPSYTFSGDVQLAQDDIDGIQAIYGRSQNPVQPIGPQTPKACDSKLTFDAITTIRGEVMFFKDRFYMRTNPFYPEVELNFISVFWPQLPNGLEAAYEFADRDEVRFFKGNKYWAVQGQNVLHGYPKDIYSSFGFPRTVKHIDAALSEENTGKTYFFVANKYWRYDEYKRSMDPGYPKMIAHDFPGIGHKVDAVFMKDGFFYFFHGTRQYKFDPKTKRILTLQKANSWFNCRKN

[4] = target: T3, ADAMTS4 (human, UniProt O75173 213-685, limits assumed)
T3 sequence (looked up): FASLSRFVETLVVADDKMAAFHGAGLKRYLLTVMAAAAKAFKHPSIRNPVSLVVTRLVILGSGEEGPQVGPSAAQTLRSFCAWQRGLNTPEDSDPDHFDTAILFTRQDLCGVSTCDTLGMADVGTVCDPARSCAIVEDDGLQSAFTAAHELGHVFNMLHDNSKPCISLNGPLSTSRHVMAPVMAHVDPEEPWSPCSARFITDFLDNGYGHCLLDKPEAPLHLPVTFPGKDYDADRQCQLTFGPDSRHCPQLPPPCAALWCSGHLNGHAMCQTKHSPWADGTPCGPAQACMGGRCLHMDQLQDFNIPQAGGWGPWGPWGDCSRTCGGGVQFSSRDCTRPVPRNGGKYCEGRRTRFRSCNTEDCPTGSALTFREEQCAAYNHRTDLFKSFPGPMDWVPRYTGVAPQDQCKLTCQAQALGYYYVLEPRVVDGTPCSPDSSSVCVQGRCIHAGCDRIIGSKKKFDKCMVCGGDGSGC

[5] = target: MMP3 (human, UniProt P08254 100-477, limits assumed)
[6] = target: MMP13 (human, UniProt P45452 104-471, limits assumed)
[7] = target: T4, ADAMTS5 (human, UniProt Q9UNA0 262-622, limits assumed)
T4 sequence (looked up): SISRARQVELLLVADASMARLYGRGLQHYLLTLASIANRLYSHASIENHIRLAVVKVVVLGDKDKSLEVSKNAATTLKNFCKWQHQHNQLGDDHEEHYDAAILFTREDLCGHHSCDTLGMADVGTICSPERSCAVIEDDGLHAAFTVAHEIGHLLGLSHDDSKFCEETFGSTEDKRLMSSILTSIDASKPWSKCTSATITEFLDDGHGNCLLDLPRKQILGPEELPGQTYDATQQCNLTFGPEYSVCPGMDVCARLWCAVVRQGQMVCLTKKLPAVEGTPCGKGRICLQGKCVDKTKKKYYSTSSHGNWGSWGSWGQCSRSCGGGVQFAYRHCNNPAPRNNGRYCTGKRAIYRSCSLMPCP

[8] = target: T1, MMP2; remark: listed apart in the source
[9] = target: T5, Cathepsin G (UniProt P08311 21-244)
T5 sequence (looked up): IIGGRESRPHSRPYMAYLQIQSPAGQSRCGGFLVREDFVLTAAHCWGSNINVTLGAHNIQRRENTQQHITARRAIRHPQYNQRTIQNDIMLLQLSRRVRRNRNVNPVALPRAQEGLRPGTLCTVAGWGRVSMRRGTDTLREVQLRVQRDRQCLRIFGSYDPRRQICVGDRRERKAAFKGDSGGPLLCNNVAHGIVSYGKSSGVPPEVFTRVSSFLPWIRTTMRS

[10] = target: MMP9 (human, UniProt P14780 107-707, limits assumed)
[11] = target: T2, MMP1; remark: listed apart in the source
[12] = target: MMP8 (human, UniProt P22894 101-467, limits assumed)
[13] = target: T6, MMP7 (UniProt P09237 95-267, limits assumed)
T6 sequence (looked up): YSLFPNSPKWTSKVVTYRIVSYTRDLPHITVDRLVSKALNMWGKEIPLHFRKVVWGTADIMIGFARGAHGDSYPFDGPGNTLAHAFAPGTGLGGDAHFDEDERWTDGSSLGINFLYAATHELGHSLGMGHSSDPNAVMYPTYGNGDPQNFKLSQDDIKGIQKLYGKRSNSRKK

[14] = target: Elastase; remark: listed apart in the source

MMP3, sequence (P08254 100-477 limits assumed): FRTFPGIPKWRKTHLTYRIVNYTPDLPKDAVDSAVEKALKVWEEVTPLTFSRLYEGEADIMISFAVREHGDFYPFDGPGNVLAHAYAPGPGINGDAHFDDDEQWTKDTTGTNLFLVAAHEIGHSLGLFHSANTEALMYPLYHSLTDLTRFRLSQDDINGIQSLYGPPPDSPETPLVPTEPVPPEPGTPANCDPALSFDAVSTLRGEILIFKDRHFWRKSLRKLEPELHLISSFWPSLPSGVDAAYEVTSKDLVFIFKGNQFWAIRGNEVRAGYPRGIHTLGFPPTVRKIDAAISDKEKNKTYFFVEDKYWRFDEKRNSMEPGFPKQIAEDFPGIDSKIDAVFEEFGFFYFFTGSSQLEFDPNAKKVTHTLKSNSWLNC
MMP8, sequence (P22894 101-467 limits assumed): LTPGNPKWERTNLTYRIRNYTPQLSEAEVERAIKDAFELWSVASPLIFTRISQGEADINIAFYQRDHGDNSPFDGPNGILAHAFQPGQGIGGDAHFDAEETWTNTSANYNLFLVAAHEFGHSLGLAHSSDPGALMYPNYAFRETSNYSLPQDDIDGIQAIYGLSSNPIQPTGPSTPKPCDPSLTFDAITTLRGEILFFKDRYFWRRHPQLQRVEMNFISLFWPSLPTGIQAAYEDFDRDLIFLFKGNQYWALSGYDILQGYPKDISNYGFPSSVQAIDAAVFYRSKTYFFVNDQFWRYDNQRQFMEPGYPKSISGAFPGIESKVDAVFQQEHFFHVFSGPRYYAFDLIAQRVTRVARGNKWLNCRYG
MMP9, sequence (P14780 107-707 limits assumed): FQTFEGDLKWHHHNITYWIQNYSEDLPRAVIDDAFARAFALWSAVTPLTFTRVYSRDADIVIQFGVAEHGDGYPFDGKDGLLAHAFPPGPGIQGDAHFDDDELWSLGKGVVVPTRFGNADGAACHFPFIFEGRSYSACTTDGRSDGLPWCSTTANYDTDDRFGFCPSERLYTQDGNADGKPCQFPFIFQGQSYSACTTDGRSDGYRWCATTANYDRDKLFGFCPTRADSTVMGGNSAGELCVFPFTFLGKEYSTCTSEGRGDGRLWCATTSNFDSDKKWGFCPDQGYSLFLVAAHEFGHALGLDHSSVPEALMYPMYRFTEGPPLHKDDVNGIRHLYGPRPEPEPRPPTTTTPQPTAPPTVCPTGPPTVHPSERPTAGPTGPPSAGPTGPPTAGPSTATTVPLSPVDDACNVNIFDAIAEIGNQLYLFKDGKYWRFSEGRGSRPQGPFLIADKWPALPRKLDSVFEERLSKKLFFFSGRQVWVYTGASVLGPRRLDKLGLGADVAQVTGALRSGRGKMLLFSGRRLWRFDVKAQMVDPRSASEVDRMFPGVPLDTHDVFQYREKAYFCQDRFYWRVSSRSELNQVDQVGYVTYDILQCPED

Protease Inhibition (% of WT) [1]: 75 % of WT
Protease Inhibition (% of WT) [2]: 20 % of WT
Protease Inhibition (% of WT) [3]: 200 % of WT
B1: Variant A2M, bait region SEQ ID NO 129 (other)
chain: SVSGKPQYMVLVPSLLHTETTEKGCVLLSYLNETVTVSASLESVRGNRSLFTDLEAENDVLHCVAFAVPKSSSNEEVMFLTVQVKGPTQEFKKRTTVMVKNEDSLVFVQTDKSIYKPGQTVKFRVVSMDENFHPLNELIPLVYIQDPKGNRIAQWQSFQLEGGLKQFSFPLSSEPFQGSYKVVVQKKSGGRTEHPFTVEEFVLPKFEVQVTVPKIITILEEEMNVSVCGLYTYGKPVPGHVTVSICRKYSDASDCHGEDSQAFCEKFSGQLNSHGCFYQQVKTKVFQLKRKEYEMKLHTEAQIQEEGTVVELTGRQSSEITRTITKLSFVKVDSHFRQGIPFFGQVRLVDGKGVPIPNKVIFIRGNEANYYSNATTDEHGLVQFSINTTNVMGTSLTVRVNYKDRSPCYGYQWVSEEHEEAHHTAYLVFSPSKSFVHLEPMSHELPCGHTQTVQAHYILNGGTLLGLKKLSFYYLIMAKGGIVRTGTHGLLVKQEDMKGHFSISIPVKSDIAPVARLLIYAVLPTGDVIGDSAKYDVENCLANKVDLSFSPSQSLPASHAHLRVTAAPQSVCALRAVDQSVLLMKPDAELSASSVYNLLPEKDLTGFPGPLNDQDDEDCINRHNVYINGITYTPVSSTNEKDMYSFLEDMGLKAFTNSKIRKPKMCPQLEQYEMHGPEAIPMSIPTEGEGEGEGIPENFFGVSEDLVVQIVEEPHTKLRKYFPETWIWDLVVVNSAGVAEVGVTVPDTITEWKAGAFCLSEDAGLGISSTASLRAFQPFFVELTMPYSVIRGEAFTLKATVLNYLPKCIRVSVQLEASPAFLAVPVEKEQAPHCICANGRQTVSWAVTPKSLGNVNFTVSAEALESQELCGTEVPSVPEHGRKDTVIKPLLVEPEGLEKETTFNSLLCPSGGEVSEELSLKLPPNVVEESARASVSVLGDILGSAMQNTQNLLQMPYGCGEQNMVLFAPNIYVLDYLNETQQLTPEIKSKAIGYLNTGYQRQLNYKHYDGSYSTFGERYGRNQGNTWLTAFVLKTFAQARAYIFIDEAHITQALIWLSQRQKDNGCFRSSGSLLNNAIKGGVEDEVTLSAYITIALLEIPLTVTHPVVRNALFCLESAWKTAQEGDHGSHVYTKALLAYAFALAGNQDKRKEVLKSLNEEAVKKDNSVHWERPQKPKAPVGHFYEPQAPSAEVEMTSYVLLAYLTAQPAPTSEDLTSATNIVKWITKQQNAQGGFSSTQDTVVALHALSKYGAATFTRTGKAAQVTIQSSGTFSSKFQVDNNNRLLLQQVSLPELPGEYSMKVTGEGCVYLQTSLKYNILPEKEEFPFALGVQTLPQTCDEPKAHTSFQISLSVSYTGSRSASNMAIVDVKMVSGFIPLKPTVKMLERSNHVSRTEVSSNHVLIYLDKVSNQTLSLFFTVLQDVPVRDLKPAIVKVYDYYETDEFAIAEYNAPCSKDLGNADYKDDDDKGASHHHHHH

Protease Inhibition (% of WT) [4]: 83 % of WT
Protease Inhibition (% of WT) [5]: 40 % of WT
Protease Inhibition (% of WT) [6]: 143 % of WT
Protease Inhibition (% of WT) [7]: 183 % of WT
Protease Inhibition (% of WT) [8]: 59 % of WT
Protease Inhibition (% of WT) [9]: 139 % of WT
Protease Inhibition (% of WT) [10]: 41 % of WT
Protease Inhibition (% of WT) [11]: 116 % of WT
Protease Inhibition (% of WT) [12]: 77 % of WT
Protease Inhibition (% of WT) [13]: 157 % of WT
Protease Inhibition (% of WT) [14]: 115 % of WT
B2: Variant A2M, bait region SEQ ID NO 15 (other)
chain: SVSGKPQYMVLVPSLLHTETTEKGCVLLSYLNETVTVSASLESVRGNRSLFTDLEAENDVLHCVAFAVPKSSSNEEVMFLTVQVKGPTQEFKKRTTVMVKNEDSLVFVQTDKSIYKPGQTVKFRVVSMDENFHPLNELIPLVYIQDPKGNRIAQWQSFQLEGGLKQFSFPLSSEPFQGSYKVVVQKKSGGRTEHPFTVEEFVLPKFEVQVTVPKIITILEEEMNVSVCGLYTYGKPVPGHVTVSICRKYSDASDCHGEDSQAFCEKFSGQLNSHGCFYQQVKTKVFQLKRKEYEMKLHTEAQIQEEGTVVELTGRQSSEITRTITKLSFVKVDSHFRQGIPFFGQVRLVDGKGVPIPNKVIFIRGNEANYYSNATTDEHGLVQFSINTTNVMGTSLTVRVNYKDRSPCYGYQWVSEEHEEAHHTAYLVFSPSKSFVHLEPMSHELPCGHTQTVQAHYILNGGTLLGLKKLSFYYLIMAKGGIVRTGTHGLLVKQEDMKGHFSISIPVKSDIAPVARLLIYAVLPTGDVIGDSAKYDVENCLANKVDLSFSPSQSLPASHAHLRVTAAPQSVCALRAVDQSVLLMKPDAELSASSVYNLLPEKDLTGFPGPLNDQDDEDCINRHNVYINGITYTPVSSTNEKDMYSFLEDMGLKAFTNSKIRKPKMCPQLEHGPEGEGEGEGIPENFFGVSEDLVVQISELEGRGSRYLTAVEEPHTKLRKYFPETWIWDLVVVNSAGVAEVGVTVPDTITEWKAGAFCLSEDAGLGISSTASLRAFQPFFVELTMPYSVIRGEAFTLKATVLNYLPKCIRVSVQLEASPAFLAVPVEKEQAPHCICANGRQTVSWAVTPKSLGNVNFTVSAEALESQELCGTEVPSVPEHGRKDTVIKPLLVEPEGLEKETTFNSLLCPSGGEVSEELSLKLPPNVVEESARASVSVLGDILGSAMQNTQNLLQMPYGCGEQNMVLFAPNIYVLDYLNETQQLTPEIKSKAIGYLNTGYQRQLNYKHYDGSYSTFGERYGRNQGNTWLTAFVLKTFAQARAYIFIDEAHITQALIWLSQRQKDNGCFRSSGSLLNNAIKGGVEDEVTLSAYITIALLEIPLTVTHPVVRNALFCLESAWKTAQEGDHGSHVYTKALLAYAFALAGNQDKRKEVLKSLNEEAVKKDNSVHWERPQKPKAPVGHFYEPQAPSAEVEMTSYVLLAYLTAQPAPTSEDLTSATNIVKWITKQQNAQGGFSSTQDTVVALHALSKYGAATFTRTGKAAQVTIQSSGTFSSKFQVDNNNRLLLQQVSLPELPGEYSMKVTGEGCVYLQTSLKYNILPEKEEFPFALGVQTLPQTCDEPKAHTSFQISLSVSYTGSRSASNMAIVDVKMVSGFIPLKPTVKMLERSNHVSRTEVSSNHVLIYLDKVSNQTLSLFFTVLQDVPVRDLKPAIVKVYDYYETDEFAIAEYNAPCSKDLGNADYKDDDDKGASHHHHHH
